What was measured:
[1] = biological target: ubp1_human USP1 (UniProt O94782)
[2] = biological target: USP46, P62068-1
USP46, P62068-1, sequence (P62068 whole entry): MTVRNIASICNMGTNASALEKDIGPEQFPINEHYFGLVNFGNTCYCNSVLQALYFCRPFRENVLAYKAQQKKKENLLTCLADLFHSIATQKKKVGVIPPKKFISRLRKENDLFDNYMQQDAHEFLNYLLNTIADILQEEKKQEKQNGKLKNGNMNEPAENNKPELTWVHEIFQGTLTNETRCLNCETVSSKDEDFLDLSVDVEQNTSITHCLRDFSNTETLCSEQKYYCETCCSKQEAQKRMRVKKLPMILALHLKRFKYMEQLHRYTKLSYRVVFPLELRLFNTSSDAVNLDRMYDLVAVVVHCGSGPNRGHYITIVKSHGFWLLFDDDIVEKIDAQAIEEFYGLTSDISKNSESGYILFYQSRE

ubp1_human USP1, sequence (O94782 whole entry): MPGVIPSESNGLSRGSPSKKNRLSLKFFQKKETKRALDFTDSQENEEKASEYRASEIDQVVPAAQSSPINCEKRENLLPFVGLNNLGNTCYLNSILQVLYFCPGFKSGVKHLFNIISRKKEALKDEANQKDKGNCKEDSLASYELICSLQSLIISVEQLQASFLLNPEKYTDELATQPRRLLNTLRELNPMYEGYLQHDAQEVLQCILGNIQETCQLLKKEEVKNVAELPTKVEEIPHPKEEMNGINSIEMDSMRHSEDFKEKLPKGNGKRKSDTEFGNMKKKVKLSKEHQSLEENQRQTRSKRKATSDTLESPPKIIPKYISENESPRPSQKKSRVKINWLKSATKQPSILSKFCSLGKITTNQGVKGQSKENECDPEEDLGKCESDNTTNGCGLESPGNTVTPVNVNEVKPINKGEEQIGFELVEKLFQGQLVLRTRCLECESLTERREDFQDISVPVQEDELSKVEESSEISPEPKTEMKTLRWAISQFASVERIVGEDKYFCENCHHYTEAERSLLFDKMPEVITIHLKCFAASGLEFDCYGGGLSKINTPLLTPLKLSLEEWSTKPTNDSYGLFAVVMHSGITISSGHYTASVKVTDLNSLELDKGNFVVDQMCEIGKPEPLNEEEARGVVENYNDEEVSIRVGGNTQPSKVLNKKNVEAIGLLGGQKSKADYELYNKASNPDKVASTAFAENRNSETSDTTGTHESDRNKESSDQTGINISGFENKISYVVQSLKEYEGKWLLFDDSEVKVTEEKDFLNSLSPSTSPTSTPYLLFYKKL

effect of a mutation on the interaction [1]	effect of a mutation on the interaction [2]	Substance
disrupting interaction strength	disrupting interaction strength	WD repeat-containing protein 48 (Homo sapiens), Q8TAF3-1 K214E;W256A;R272D
	decreasing interaction strength	WD repeat-containing protein 48 (Homo sapiens), Q8TAF3-1 S170Y

— IntAct's records for PubMed 26388029
